Source: patent US20230357429A1 (JANUX THERAPEUTICS, published 2023)
Read-outs that look alike come from different tables or passages of the source. Where no end group is shown, it is not given here.

What was measured:
Human TROP2 Full length = target: T1, Human TROP2 Full length (human, UniProt P09758 31-323); assay: cell-based or functional assay
T1 sequence: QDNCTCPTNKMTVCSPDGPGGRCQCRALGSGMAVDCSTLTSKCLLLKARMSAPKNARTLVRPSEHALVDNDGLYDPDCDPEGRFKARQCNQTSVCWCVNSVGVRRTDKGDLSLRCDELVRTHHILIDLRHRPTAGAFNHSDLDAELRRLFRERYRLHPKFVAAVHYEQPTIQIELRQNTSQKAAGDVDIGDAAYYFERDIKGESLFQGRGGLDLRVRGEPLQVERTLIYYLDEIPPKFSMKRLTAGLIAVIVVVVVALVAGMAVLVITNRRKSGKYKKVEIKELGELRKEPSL

Cyno TROP2 Full length = target: T2, Cyno TROP2 Full length (cynomolgus monkey, UniProt P09758 31-323 (human entry)); assay: cell-based or functional assay
T2 chain: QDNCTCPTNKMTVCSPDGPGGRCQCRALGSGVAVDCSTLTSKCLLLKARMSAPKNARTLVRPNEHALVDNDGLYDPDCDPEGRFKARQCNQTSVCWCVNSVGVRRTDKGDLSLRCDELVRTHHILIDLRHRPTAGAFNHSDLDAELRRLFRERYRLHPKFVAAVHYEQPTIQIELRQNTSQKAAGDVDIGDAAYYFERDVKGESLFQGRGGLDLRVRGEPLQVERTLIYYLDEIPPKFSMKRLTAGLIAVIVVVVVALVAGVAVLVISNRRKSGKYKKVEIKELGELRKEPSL

[1] = target: T3, Human TROP2 ECD (31-274 AA) (human, UniProt P09758 31-274, biotinylated); assay: ELISA; biotinylated TROP2 on neutravidin plates, PC titrated, HRP secondary
T3 construct: also called biotinylated TROP2; TROP2-biotin
T3 sequence: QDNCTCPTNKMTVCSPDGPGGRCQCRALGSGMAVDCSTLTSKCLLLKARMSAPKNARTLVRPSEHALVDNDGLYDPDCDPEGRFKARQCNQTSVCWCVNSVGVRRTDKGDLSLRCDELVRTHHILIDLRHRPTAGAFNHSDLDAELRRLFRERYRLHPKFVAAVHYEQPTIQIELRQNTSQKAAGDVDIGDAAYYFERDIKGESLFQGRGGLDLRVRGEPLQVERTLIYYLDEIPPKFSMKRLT

TBD-1 wt = target: T4, TBD-1 wt; assay: competition ELISA, peptide vs Fab binding to captured biotin-TROP2
T4 construct: Fab; the heavy chain entry is VH-CH1; also called wild-type anti-TROP2 Fab (hRS7); TROP2 Fab

[2] = target: T5, TBD-1 wt (anti-TROP2 Fab, hRS7); assay: competition ELISA, Fab on captured TROP2
T5 construct: non-mutated Fab

TBD-6 (LC I93A) = target: T6, TBD-6 (LC I93A); assay: competition ELISA, Fab on captured TROP2
T6 construct: anti-TROP2 Fab, CDR3 LC alanine mutant

TBD-11 (HC R98A) [3] = target: T7, TBD-11 (HC R98A); assay: competition ELISA, Fab on captured TROP2
T7 construct: anti-TROP2 Fab, CDR3 HC alanine mutant

TBD-17 (HC S104A) [4] = target: T8, TBD-17 (HC S104A); assay: competition ELISA, Fab on captured TROP2
T8 construct: anti-TROP2 Fab, CDR3 HC alanine mutant

TBD-22 (HC D109A) [5] = target: T9, TBD-22 (HC D109A); assay: competition ELISA, Fab on captured TROP2
T9 construct: anti-TROP2 Fab, CDR3 HC alanine mutant

TBD-11 (HC R98A) [6] = target: T10, TBD-11 (HC R98A); assay: competition ELISA, peptide vs Fab binding to captured biotin-TROP2
T10 construct: Fab; also called HC R98A mutant

TBD-17 (HC S104A) [7] = target: T11, TBD-17 (HC S104A); assay: as above
T11 construct: Fab; also called HC S104A mutant

TBD-21 (HC F108A) [8] = target: T12, TBD-21 (HC F108A); assay: as above
T12 construct: Fab; also called HC F108A mutant

TBD-22 (HC D109A) [9] = target: T13, TBD-22 (HC D109A); assay: as above
T13 construct: Fab; also called HC D109A mutant

TBD-11 (HC R98A) [10] = target: T10, TBD-11 (HC R98A); assay: as above; remark: listed apart in the source
TBD-17 (HC S104A) [11] = target: T11, TBD-17 (HC S104A); assay: as above; remark: listed apart in the source
TBD-21 (HC F108A) [12] = target: T12, TBD-21 (HC F108A); assay: as above; remark: listed apart in the source
TBD-22 (HC D109A) [13] = target: T13, TBD-22 (HC D109A); assay: as above; remark: listed apart in the source

B1: PC-33 (bispecific antibody)
light: GGVDFCALYHWPICYQGGGGSGGLSGRSDAGSPLGLAGSGGSDIQLTQSPSSLSASVGDRVSITCKASQDVSIAVAWYQQKPGKAPKLLIYSASYRYTGVPDRFSGSGSGTDFTLTISSLQPEDFAVYYCQQHYITPLTFGAGTKVEIKRTVAAPSVFIFPPSDEQLKSGTASVVCLLNNFYPREAKVQWKVDNALQSGNSQESVTEQDSKDSTYSLSSTLTLSKADYEKHKVYACEVTHQGLSSPVTKSFNRGEC
heavy: not shown
notes: Masked polypeptide complex: anti-TROP2 F108A, anti-CD3 wt; CD3 mask …
H292 Cytotoxicity EC50 (pM) (Human TROP2 Full length): 13200 pM | CyTROP2 HEK293 EC50 (pM) (Cyno TROP2 Full length): 837 pM | EC50 [1]: 574 nM

B2: PC-40 (bispecific antibody)
light: GGVDFCALYHWPICYQGGGGSGGLSGRSDAGSPLGLAGSGGSDIQLTQSPSSLSASVGDRVSITCKASQDVSIAVAWYQQKPGKAPKLLIYSASYRYTGVPDRFSGSGSGTDFTLTISSLQPEDFAVYYCQQHYITPLTFGAGTKVEIKRTVAAPSVFIFPPSDEQLKSGTASVVCLLNNFYPREAKVQWKVDNALQSGNSQESVTEQDSKDSTYSLSSTLTLSKADYEKHKVYACEVTHQGLSSPVTKSFNRGEC
heavy: EVQLVESGGGLVQPGGSLRLSCAASGSTFYTAVMGWVRQAPGKGLEWVAAIRWTALTTSYADSVKGRFTISRDGAKTTLYLQMNSLRPEDTAVYYCAARGTLGLFTTADSYDYWGQGTLVTVSSGGGGSGGGSGGYLCGPDADETLACYGGGGSGGGLSGRSDAGSPLGLAGSGGGSEVQLVESGGGLVQPGGSLKLSCAASGFTFNKYAMNWVRQASGKGLEWVGRIRSKYNNYATYYADSVKDRFTISRDDSKNTAYLQMNSLKTEDTAVYYCVRHGNFGNSYISYWAYWGQGTLVTVSSGGGGSGGGGSGGGGSQTVVTQEPSFSVSPGGTVTLTCRSSTGAVTSGNYANWVQQTPGQAPRGLIGGTKFLAPGVPDRFSGSILGNKAALTITGAQADDESDYYCVLWYSNRWVFGGGTKLTVLGGGGSQVQLQQSGSELKKPGASVKVSCKASGYTFTNYGMNWVKQAPGQGLKWMGWINTYTGEPTYTDDFKGRFAFSLDTSVSTAYLQISSLKADDTAVYFCARGGFGSSYWYADVWGQGSLVTVSSASTKGPSVFPLAPSSKSTSGGTAALGCLVKDYFPEPVTVSWNSGALTSGVHTFPAVLQSSGLYSLSSVVTVPSSSLGTQTYICNVNHKPSNTKVDKKVEPKSC
notes: Masked polypeptide complex: anti-TROP2 F108A, anti-CD3 with P41S, A49G, N87S ; E227D; CD3 mask YLCGPDADETLACY
H292 Cytotoxicity EC50 (pM) (Human TROP2 Full length): 53200 pM | HCT116 Cytotoxicity EC50 (pM) (Human TROP2 Full length): > 100000 pM | CyTROP2 HEK293 EC50 (pM) (Cyno TROP2 Full length): 10400 pM | EC50 [1]: 3510 nM

YSLVCVKNLYCWNL (cysteine pairing not given here; also: biotinylated, site not given here) [Peptide-31]
IC50 (TBD-1 wt): 2940 nM

VDFCYQYAWPVCSTGD (mask peptide for the TROP2 Fab) [Peptide-52]
IC50 [2]: 14300 nM | IC50 (TBD-6 (LC I93A)): 12300 nM | IC50 (TBD-11 (HC R98A) [3]): 19100 nM | IC50 (TBD-17 (HC S104A) [4]): 15700 nM | IC50 (TBD-22 (HC D109A) [5]): 890 nM

IDFCLIYNWPVCDT (cysteine pairing not given here; also: biotinylated, site not given here) [Peptide-63]
IC50 (TBD-11 (HC R98A) [6]): 6810 nM | IC50 (TBD-17 (HC S104A) [7]): 1400 nM | IC50 (TBD-21 (HC F108A) [8]): 5890 nM | IC50 (TBD-22 (HC D109A) [9]): 110 nM

VEFCKQWTWFGCMT (mask peptide for the TROP2 Fab) [Peptide-44]
IC50 (TBD-11 (HC R98A) [3]): 3550 nM

DNLICVKNLWCWIA (cysteine pairing not given here; also: biotinylated, site not given here) [Peptide-26]
IC50 (TBD-1 wt): 2230 nM

VDFCSFYRWPICET (cysteine pairing not given here; also: biotinylated (site not given here)) [Peptide-20]
IC50 (TBD-1 wt): 1610 nM

B3: PC-48 (bispecific antibody)
light: GGVDFCALYHWPICYQGGGGSGGGSGGSGGASSGAGGSGGGSDIQLTQSPSSLSASVGDRVSITCKASQDVSIAVAWYQQKPGKAPKLLIYSASYRYTGVPDRFSGSGSGTDFTLTISSLQPEDFAVYYCQQHYITPLTFGAGTKVEIKRTVAAPSVFIFPPSDEQLKSGTASVVCLLNNFYPREAKVQWKVDNALQSGNSQESVTEQDSKDSTYSLSSTLTLSKADYEKHKVYACEVTHQGLSSPVTKSFNRGEC
heavy: not shown
notes: Masked polypeptide complex with non-cleavable linker: anti-TROP2 F108A, anti-CD3 wt
H292 Cytotoxicity EC50 (pM) (Human TROP2 Full length): > 100000 pM | HCT116 Cytotoxicity EC50 (pM) (Human TROP2 Full length): > 100000 pM | CyTROP2 HEK293 EC50 (pM) (Cyno TROP2 Full length): 69900 pM | EC50 [1]: 3960 nM

VDFCYQYGWPICSRVD (mask peptide for the TROP2 Fab) [Peptide-45]
IC50 [2]: 9290 nM | IC50 (TBD-6 (LC I93A)): 14500 nM | IC50 (TBD-11 (HC R98A) [3]): 409000 nM | IC50 (TBD-17 (HC S104A) [4]): 39600 nM | IC50 (TBD-22 (HC D109A) [5]): 2500 nM

B4: PC-49 (bispecific antibody)
light: GGVDFCALYHWPICYQGGGSGGSGGISSGLLSGRSDAGSGGSDIQLTQSPSSLSASVGDRVSITCKASQDVSIAVAWYQQKPGKAPKLLIYSASYRYTGVPDRFSGSGSGTDFTLTISSLQPEDFAVYYCQQHYITPLTFGAGTKVEIKRTVAAPSVFIFPPSDEQLKSGTASVVCLLNNFYPREAKVQWKVDNALQSGNSQESVTEQDSKDSTYSLSSTLTLSKADYEKHKVYACEVTHQGLSSPVTKSFNRGEC
heavy: not shown
notes: Masked polypeptide complex with CL2 cleavable linker: anti-TROP2 F108A, anti-CD3 wt
H292 Cytotoxicity EC50 (pM) (Human TROP2 Full length): 67400 pM | HCT116 Cytotoxicity EC50 (pM) (Human TROP2 Full length): > 100000 pM | CyTROP2 HEK293 EC50 (pM) (Cyno TROP2 Full length): 10600 pM | EC50 [1]: 1360 nM

EDFCKLYNWPICYQ (cysteine pairing not given here; also: biotinylated, site not given here) [Peptide-7]
IC50 (TBD-11 (HC R98A) [10]): 1000 nM | IC50 (TBD-17 (HC S104A) [11]): 3770 nM | IC50 (TBD-21 (HC F108A) [12]): 4010 nM | IC50 (TBD-22 (HC D109A) [13]): 130 nM

NYLLCVKNLYCWIV (cysteine pairing not given here; also: biotinylated, site not given here) [Peptide-28]
IC50 (TBD-1 wt): 1630 nM

SVLFCVKNLYCWVT (cysteine pairing not given here; also: biotinylated (site not given here)) [Peptide-24]
IC50 (TBD-1 wt): 2780 nM

VDFCYQYGWPICSRLY (mask peptide for the TROP2 Fab) [Peptide-47]
IC50 [2]: 6480 nM | IC50 (TBD-6 (LC I93A)): 7540 nM | IC50 (TBD-11 (HC R98A) [3]): 46200 nM | IC50 (TBD-17 (HC S104A) [4]): 27200 nM | IC50 (TBD-22 (HC D109A) [5]): 2010 nM

FSLVCVRNLYCWNV (cysteine pairing not given here; also: biotinylated, site not given here) [Peptide-27]
IC50 (TBD-1 wt): 740 nM

TSLICFRNVYCWNV (cysteine pairing not given here; also: biotinylated, site not given here) [Peptide-30]
IC50 (TBD-1 wt): 1910 nM

VEICKQWFYTVCLS (mask peptide for the TROP2 Fab) [Peptide-58]
IC50 (TBD-11 (HC R98A) [3]): 1130 nM

PDFCAVYRWPICYQ (cysteine pairing not given here; also: biotinylated, site not given here) [Peptide-64]
IC50 (TBD-11 (HC R98A) [6]): 1780 nM | IC50 (TBD-17 (HC S104A) [7]): 1600 nM | IC50 (TBD-21 (HC F108A) [8]): 1630 nM | IC50 (TBD-22 (HC D109A) [9]): 120 nM
